First the molecules themselves.
B1: PRPH (parent)
chain: DEIEFLKKLHEEELRDLQVSVESQ
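Note: lentivirally expressed fusions sorted by FACS into six bins by GFP to DsRed ratio, PSI derived from sequencing read proportions per bin multiplied by bin number.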

Variants of B1 are the subject of the data set. As to the kind of experiment: protein stability index of a GFP-peptide fusion (GPS, HEK-293T) (PSI 1-6); higher = more stable. The settings on record: c terminus: a fixed tail appended.
On to DEIEFLKKLHEEELRDLQVSVESK [Q24K], for which the protein stability index was 4.65.

On to DEIEFLKKLHEEELRDLQVSVESL [Q24L], for which the protein stability index was determined as 4.66.

On to DEIEFLKKLHEEELRDLQVSVESV [Q24V], for which the protein stability index turned out to be 4.23.

Regarding DEIEQLKKLHEEELRDLQVSVESQ [F5Q], the protein stability index was 5.41.

Turning to DEIEILKKLHEEELRDLQVSVESQ [F5I], the protein stability index is 4.92.

For the variant DEIEMLKKLHEEELRDLQVSVESQ [F5M], the protein stability index is 5.

As for DEIEHLKKLHEEELRDLQVSVESQ [F5H], the protein stability index came to 4.85.

Consider DEIEELKKLHEEELRDLQVSVESQ [F5E], for which the protein stability index amounted to 5.47.

As to DEIEPLKKLHEEELRDLQVSVESQ [F5P], the protein stability index was 5.22.

With DEIENLKKLHEEELRDLQVSVESQ [F5N], the protein stability index was found to be 4.9.

Take DEIEDLKKLHEEELRDLQVSVESQ [F5D]: the protein stability index came out at 5.27.

Regarding DEIEKLKKLHEEELRDLQVSVESQ [F5K], the protein stability index stood at 4.73.

Consider DEIEFLKKLHEEPLRDLQVSVESQ [E13P], for which the protein stability index is 5.05.

Regarding DEIEFLKKLHEEALRDLQVSVESQ [E13A], the protein stability index turned out to be 3.9.

Turning to DEIEFLKKLHEEKLRDLQVSVESQ [E13K], the protein stability index came out at 5.25.

On to DEIEFLKKLHEEILRDLQVSVESQ [E13I], for which the protein stability index was 2.74.

As for DEIEFLKKLHEEHLRDLQVSVESQ [E13H], the protein stability index worked out at 4.45.

With AEIEFLKKLHEEELRDLQVSVESQ [D1A], the protein stability index came to 4.22.

For QEIEFLKKLHEEELRDLQVSVESQ [D1Q], the protein stability index is 3.77.

As to YEIEFLKKLHEEELRDLQVSVESQ [D1Y], the protein stability index was 4.32.

Consider WEIEFLKKLHEEELRDLQVSVESQ [D1W], for which the protein stability index worked out at 3.97.

With DEIEFLKKLHEEELRDLDVSVESQ [Q18D], the protein stability index amounted to 5.27.

As to DEIEFLKKLHEEELRDLEVSVESQ [Q18E], the protein stability index worked out at 4.81.

As for DEIEFLKKLHEEELRDLYVSVESQ [Q18Y], the protein stability index stood at 4.21.

Take DEIEFLKKLHEEELRDLNVSVESQ [Q18N]: the protein stability index stood at 5.11.

For the variant DEIEFLKKLHEEELRDLSVSVESQ [Q18S], the protein stability index was determined as 5.08.

On to DEIEFLKKLHEEELRDLWVSVESQ [Q18W], for which the protein stability index turned out to be 3.39.

On to DEIEFLKKLHEEELRDLLVSVESQ [Q18L], for which the protein stability index was determined as 3.89.

For DEIEFLKKLHEEELRDLIVSVESQ [Q18I], the protein stability index came out at 4.4.

Turning to DEIEFLKVLHEEELRDLQVSVESQ [K8V], the protein stability index was 4.06.

DEIEFLKGLHEEELRDLQVSVESQ [K8G]: the protein stability index was found to be 4.55.

As for DEIEFLKMLHEEELRDLQVSVESQ [K8M], the protein stability index was 4.25.

With DEIEFLKCLHEEELRDLQVSVESQ [K8C], the protein stability index came out at 3.8.

DEIEFLKSLHEEELRDLQVSVESQ [K8S]: the protein stability index turned out to be 4.15.

Take DEIEFLKELHEEELRDLQVSVESQ [K8E]: the protein stability index worked out at 4.37.

Regarding DEIEFLKRLHEEELRDLQVSVESQ [K8R], the protein stability index amounted to 4.61.

Regarding DEIEFLKNLHEEELRDLQVSVESQ [K8N], the protein stability index was determined as 4.84.

On to DEIEFLKKLHERELRDLQVSVESQ [E12R], for which the protein stability index amounted to 4.8.

Take DEIEFLKKLHEVELRDLQVSVESQ [E12V]: the protein stability index was found to be 4.1.

For the variant DEIEFLKKLHEAELRDLQVSVESQ [E12A], the protein stability index was found to be 4.69.

Regarding DEIEFLKKLHEYELRDLQVSVESQ [E12Y], the protein stability index was found to be 4.07.

For DEIEFLKKLHEPELRDLQVSVESQ [E12P], the protein stability index came out at 4.77.

On to DEIEFLKKLHEHELRDLQVSVESQ [E12H], for which the protein stability index was found to be 4.64.

Turning to DEIEFLKKLHENELRDLQVSVESQ [E12N], the protein stability index turned out to be 4.5.

Consider DEIEFLKKLHEEELLDLQVSVESQ [R15L], for which the protein stability index is 4.38.

On to DEIEFLKKLHEEELTDLQVSVESQ [R15T], for which the protein stability index came out at 4.51.

On to DEIEFLKKLHEEELFDLQVSVESQ [R15F], for which the protein stability index is 4.15.

On to DEIEFLKKLHEEELQDLQVSVESQ [R15Q], for which the protein stability index came to 4.66.

Take DEIEFLKKLHEEELIDLQVSVESQ [R15I]: the protein stability index amounted to 4.79.

DEIEFLKKLHEEELDDLQVSVESQ [R15D]: the protein stability index was 5.45.

DEIEFLKKLHEEELCDLQVSVESQ [R15C]: the protein stability index was 4.53.

In the case of DEIEFLKKLHEEELYDLQVSVESQ [R15Y], the protein stability index worked out at 4.58.

Turning to DEIEFLKKLHEEELRDLQVSVNSQ [E22N], the protein stability index turned out to be 4.48.

As for DEIEFLKKLHEEELRDLQVSVYSQ [E22Y], the protein stability index was 3.75.

DEIEFLKKLHEEELRDLQVSVHSQ [E22H]: the protein stability index was 4.5.

For DEIEFLKKLHEEELRDLQVSVPSQ [E22P], the protein stability index is 5.25.

Consider DEIEFLKKLHEEELRDLQVSVCSQ [E22C], for which the protein stability index was determined as 4.93.

DEIEFLKKLHEEELRDLQVSVGSQ [E22G]: the protein stability index turned out to be 4.3.

As to DEIEFLKKLHEEELRDLQVSVTSQ [E22T], the protein stability index was found to be 4.72.

Turning to DEIEFLKKLHEEELRDLQVSVASQ [E22A], the protein stability index was determined as 4.47.

Turning to DEHEFLKKLHEEELRDLQVSVESQ [I3H], the protein stability index came to 5.24.

Regarding DEWEFLKKLHEEELRDLQVSVESQ [I3W], the protein stability index was determined as 4.41.

As to DELEFLKKLHEEELRDLQVSVESQ [I3L], the protein stability index was 4.84.

As for DEEEFLKKLHEEELRDLQVSVESQ [I3E], the protein stability index is 5.43.

As to DECEFLKKLHEEELRDLQVSVESQ [I3C], the protein stability index is 5.09.

In the case of DESEFLKKLHEEELRDLQVSVESQ [I3S], the protein stability index was determined as 5.42.

In the case of DEREFLKKLHEEELRDLQVSVESQ [I3R], the protein stability index came out at 5.28.

For the variant DEGEFLKKLHEEELRDLQVSVESQ [I3G], the protein stability index came to 5.05.

With DEQEFLKKLHEEELRDLQVSVESQ [I3Q], the protein stability index was 5.08.

As for DEPEFLKKLHEEELRDLQVSVESQ [I3P], the protein stability index stood at 4.94.

Take DEDEFLKKLHEEELRDLQVSVESQ [I3D]: the protein stability index came out at 5.68.

For DENEFLKKLHEEELRDLQVSVESQ [I3N], the protein stability index came out at 5.46.

As to DVIEFLKKLHEEELRDLQVSVESQ [E2V], the protein stability index worked out at 2.

On to DQIEFLKKLHEEELRDLQVSVESQ [E2Q], for which the protein stability index was determined as 3.73.

DFIEFLKKLHEEELRDLQVSVESQ [E2F]: the protein stability index turned out to be 2.13.

On to DYIEFLKKLHEEELRDLQVSVESQ [E2Y], for which the protein stability index came to 1.91.

As for DCIEFLKKLHEEELRDLQVSVESQ [E2C], the protein stability index turned out to be 2.04.

For DKIEFLKKLHEEELRDLQVSVESQ [E2K], the protein stability index is 3.94.

In the case of DNIEFLKKLHEEELRDLQVSVESQ [E2N], the protein stability index was 4.67.

Regarding DGIEFLKKLHEEELRDLQVSVESQ [E2G], the protein stability index was 3.56.

Regarding DTIEFLKKLHEEELRDLQVSVESQ [E2T], the protein stability index stood at 2.98.

Consider DEIEFLKKLHEEELRDLQVSKESQ [V21K], for which the protein stability index is 5.06.

On to DEIEFLKKLHEEELRDLQVSNESQ [V21N], for which the protein stability index stood at 5.29.

In the case of DEIEFLKKLHEEELRDLQVSQESQ [V21Q], the protein stability index was 4.39.

DEIEFLKKLHEEELRDLQVSHESQ [V21H]: the protein stability index came out at 5.09.

With DEIEFLKKLHEEELRDLQVSGESQ [V21G], the protein stability index worked out at 4.92.

Take DEIEFLKKLHEEELRDLQVSPESQ [V21P]: the protein stability index amounted to 4.95.

For the variant DEIEFLKKLHEEELRDLQVSWESQ [V21W], the protein stability index was 4.36.

For the variant DEIEFLKKLHEEELRDLQVSMESQ [V21M], the protein stability index stood at 4.45.

Turning to DEIEFLKKLHEEELRDLQVSEESQ [V21E], the protein stability index turned out to be 5.81.

With DEITFLKKLHEEELRDLQVSVESQ [E4T], the protein stability index was 4.16.

For the variant DEIAFLKKLHEEELRDLQVSVESQ [E4A], the protein stability index worked out at 4.36.

As to DEIFFLKKLHEEELRDLQVSVESQ [E4F], the protein stability index was found to be 3.96.

DEIRFLKKLHEEELRDLQVSVESQ [E4R]: the protein stability index turned out to be 3.98.
